The values that follow are results of earlier work, collected in publication PMC8666702 (Hypertension (Dallas, Tex. : 1979), 2021).

The test system of series [1] is neprilysin (NEP).
Series [2] deals with insulin degrading enzyme (IDE).

Take atrial natriuretic peptide [ANP]: the “Degradation by neprilysin (NEP)” value in series [1] is “rapid degradation”. Further, in series [2], the “Degradation by insulin degrading enzyme (IDE)” value is “rapid degradation”.
